Paper PMC8615399, “Novel Structures of Type 1 Glyceraldehyde-3-phosphate Dehydrogenase from Escherichia coli Provide New Insights into the Mechanism of Generation of 1,3-Bisphosphoglyceric Acid” (Biomolecules, 2021)

B1: glyceraldehyde-3-phosphate dehydrogenase type 1 from Escherichia coli, wild type (enzyme, UniProt P0A9B2 1-331, looked up)
chain: MTIKVGINGFGRIGRIVFRAAQKRSDIEIVAINDLLDADYMAYMLKYDSTHGRFDGTVEVKDGHLIVNGKKIRVTAERDPANLKWDEVGVDVVAEATGLFLTDETARKHITAGAKKVVMTGPSKDNTPMFVKGANFDKYAGQDIVSNASCTTNCLAPLAKVINDNFGIIEGLMTTVHATTATQKTVDGPSHKDWRGGRGASQNIIPSSTGAAKAVGKVLPELNGKLTGMAFRVPTPNVSVVDLTVRLEKAATYEQIKAAVKAAAEGEMKGVLGYTEDDVVSTDFNGEVCTSVFDAKAGIALNDNFVKLVSWYDNETGYSNKVLDLIAHISK
notes: glyceraldehyde-3-phosphate dehydrogenase type 1 (EcGAPDH1), Escherichia coli; EC 1.2.1.12; also called EcGAPDH1; WT; source: purified as previously described [24]
B2: EcGAPDH1 double mutant C150A+H177A (enzyme, Escherichia coli, UniProt P0A9B2 1-331, looked up)
chain: MTIKVGINGFGRIGRIVFRAAQKRSDIEIVAINDLLDADYMAYMLKYDSTHGRFDGTVEVKDGHLIVNGKKIRVTAERDPANLKWDEVGVDVVAEATGLFLTDETARKHITAGAKKVVMTGPSKDNTPMFVKGANFDKYAGQDIVSNASATTNCLAPLAKVINDNFGIIEGLMTTVAATTATQKTVDGPSHKDWRGGRGASQNIIPSSTGAAKAVGKVLPELNGKLTGMAFRVPTPNVSVVDLTVRLEKAATYEQIKAAVKAAAEGEMKGVLGYTEDDVVSTDFNGEVCTSVFDAKAGIALNDNFVKLVSWYDNETGYSNKVLDLIAHISK
notes: glyceraldehyde-3-phosphate dehydrogenase type 1 (EcGAPDH1), Escherichia coli; source: purified (Ni-NTA, size-exclusion chromatography)
B3: EcGAPDH1 mutant H177A (enzyme, Escherichia coli, UniProt P0A9B2 1-331, looked up)
chain: MTIKVGINGFGRIGRIVFRAAQKRSDIEIVAINDLLDADYMAYMLKYDSTHGRFDGTVEVKDGHLIVNGKKIRVTAERDPANLKWDEVGVDVVAEATGLFLTDETARKHITAGAKKVVMTGPSKDNTPMFVKGANFDKYAGQDIVSNASCTTNCLAPLAKVINDNFGIIEGLMTTVAATTATQKTVDGPSHKDWRGGRGASQNIIPSSTGAAKAVGKVLPELNGKLTGMAFRVPTPNVSVVDLTVRLEKAATYEQIKAAVKAAAEGEMKGVLGYTEDDVVSTDFNGEVCTSVFDAKAGIALNDNFVKLVSWYDNETGYSNKVLDLIAHISK
notes: glyceraldehyde-3-phosphate dehydrogenase type 1 (EcGAPDH1), Escherichia coli; Made from the wild-type vector by overlap extension PCR; source: purified (Ni-NTA, size-exclusion chromatography)
B4: EcGAPDH1 mutant C150S (enzyme, Escherichia coli, UniProt P0A9B2 1-331, looked up)
chain: MTIKVGINGFGRIGRIVFRAAQKRSDIEIVAINDLLDADYMAYMLKYDSTHGRFDGTVEVKDGHLIVNGKKIRVTAERDPANLKWDEVGVDVVAEATGLFLTDETARKHITAGAKKVVMTGPSKDNTPMFVKGANFDKYAGQDIVSNASSTTNCLAPLAKVINDNFGIIEGLMTTVHATTATQKTVDGPSHKDWRGGRGASQNIIPSSTGAAKAVGKVLPELNGKLTGMAFRVPTPNVSVVDLTVRLEKAATYEQIKAAVKAAAEGEMKGVLGYTEDDVVSTDFNGEVCTSVFDAKAGIALNDNFVKLVSWYDNETGYSNKVLDLIAHISK
notes: as for B3
B5: EcGAPDH1 mutant C150A (enzyme, Escherichia coli, UniProt P0A9B2 1-331, looked up)
chain: MTIKVGINGFGRIGRIVFRAAQKRSDIEIVAINDLLDADYMAYMLKYDSTHGRFDGTVEVKDGHLIVNGKKIRVTAERDPANLKWDEVGVDVVAEATGLFLTDETARKHITAGAKKVVMTGPSKDNTPMFVKGANFDKYAGQDIVSNASATTNCLAPLAKVINDNFGIIEGLMTTVHATTATQKTVDGPSHKDWRGGRGASQNIIPSSTGAAKAVGKVLPELNGKLTGMAFRVPTPNVSVVDLTVRLEKAATYEQIKAAVKAAAEGEMKGVLGYTEDDVVSTDFNGEVCTSVFDAKAGIALNDNFVKLVSWYDNETGYSNKVLDLIAHISK
notes: as for B3

Target: the molecule itself
Assay: crystal structure; hanging-drop vapor diffusion at 20 °C, protein 30 mg/mL; space group P4(1)2(1)2; complexes with NAD and phosphate, G3P or BPG; four subunits (O, P, Q, R) in each structure

Stoichiometry N, 4:
B1
B2
B3
B4
B5
